The values that follow come from article PMC11297931 (2024).

What all share (test): SPR
In assay [1] the target is T1, doubly T-loop phosphorylated Cdk7/Cyclin H/Mat1_(230-309) ternary complex (human, UniProt P50613 2-346; P51946 1-323; P51948 230-309, phosphoserine at 164; phosphothreonine at 170 | M1 acetylated).
T1 chain 1: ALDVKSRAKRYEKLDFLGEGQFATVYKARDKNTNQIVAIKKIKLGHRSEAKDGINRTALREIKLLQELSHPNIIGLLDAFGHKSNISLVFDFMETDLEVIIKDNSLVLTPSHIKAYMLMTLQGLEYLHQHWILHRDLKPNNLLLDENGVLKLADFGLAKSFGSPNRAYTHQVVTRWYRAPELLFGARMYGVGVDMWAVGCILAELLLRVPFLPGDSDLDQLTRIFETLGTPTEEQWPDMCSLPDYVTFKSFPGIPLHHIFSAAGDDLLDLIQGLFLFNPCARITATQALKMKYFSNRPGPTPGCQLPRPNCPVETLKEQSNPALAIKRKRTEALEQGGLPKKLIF
T1 chain 2: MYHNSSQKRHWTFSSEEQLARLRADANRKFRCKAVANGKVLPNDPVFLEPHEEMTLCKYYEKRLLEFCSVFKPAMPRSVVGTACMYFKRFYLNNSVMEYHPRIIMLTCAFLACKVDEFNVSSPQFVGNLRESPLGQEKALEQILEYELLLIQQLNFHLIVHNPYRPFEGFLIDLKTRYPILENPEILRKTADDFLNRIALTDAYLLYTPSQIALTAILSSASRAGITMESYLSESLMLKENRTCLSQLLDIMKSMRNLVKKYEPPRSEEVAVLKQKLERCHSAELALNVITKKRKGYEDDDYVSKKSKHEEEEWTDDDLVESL
T1 chain 3: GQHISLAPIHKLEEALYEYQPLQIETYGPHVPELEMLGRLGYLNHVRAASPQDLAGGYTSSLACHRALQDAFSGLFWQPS

Assay [2] has as its target Cdk7(S164E)/Cyclin H binary complex (human, UniProt P50613 2-346; P51946 1-323, S164E, phosphothreonine at 170).
The target of assay [3] is Cdk7(S164A)/Cyclin H binary complex (human, UniProt P50613 2-346; P51946 1-323, S164A, phosphothreonine at 170).

B1: VHH_(RD7-04), form for biochemical studies (VHH)
VHH: QVQLVESGGGLVQPGGSLRLSCVASGFTFKNFYMGWVRQAPDKGLEWVATINSGGEIQSYADSVKGRFTISRDNAKNTLYLQMNNLRPEDTAVYYCSKQSSTPAKGQGTQVTVSS
Take B1: the Kd in assay [1] was found to be 0.6 nM.

B2: MBP-Mat1_(230-309) (domain or fragment)
chain: GQHISLAPIHKLEEALYEYQPLQIETYGPHVPELEMLGRLGYLNHVRAASPQDLAGGYTSSLACHRALQDAFSGLFWQPS
Take B2: the results for the equilibrium dissociation constant (Kd) in assay [2] and in assay [3] were 7.3 nM and 10.8 nM, respectively.

Usually Kd stands for a measure of binding affinity in units of concentration. A low value points to a tighter complex.
